Data: patent US20140302035A1 (MERRIMACK PHARMACEUTICALS, published 2014)

Key:
[1] = molecular target: T1, Human EpCAM-Fc-his tagged (human); test: BLI (ForteBio Octet), antibody loaded on Protein A tips, recombinant polyhistidine-tagged EpCAM-Fc in solution, 1:1 model
T1 construct: also called Recombinant polyhistidine-tagged EpCAM-Fc; recombinant EpCAM
Description: (§1) For Octet analysis, all reagents and samples are brought to room temperature. Protein A sensor tips (ForteBio, #18-5010) are hydrated for 10 minutes in 1×PBS. Assay steps include: 1-2 minutes of equilibration in 1×PBS, 4 minutes of antibody loading (concentration of 50 μg/ml in 1×PBS), 1-2 minutes of baseline stabilization, 4 minutes of antibody:antigen association, and 4 minutes of antibody:antigen dissociation. 1×PBS is used as the matrix throughout. Data are analyzed with Octet Data Analysis software, processed, and fit to a 1:1 binding model to determine kinetic parameters (Kd, kₒₙ and kdiss).
Table A-2 describes approximate EpCAM binding affinity and dissociation rate as determined for Ab#1, Ab#2, Ab#3, Ab#4, Ab#5, Ab#6, Ab#7, Ab#8, Ab#9, Ab#10, Ab#11, Ab#12, and Ab#13.

cMet-his [2] = molecular target: T2, cMet-his (Homo sapiens (Human), UniProt P08581 25-933); test: BLI (ForteBio Octet), antibody loaded on Protein A tips, recombinant polyhistidine-tagged c-Met in solution, 1:1 model
T2 construct: also called his tagged cMET; Recombinant polyhistidine-tagged c-Met
Description: as §1
Table A-4 describes approximate c-Met binding affinity and dissociation rate as determined for Ab#5 and Ab#7.

[3] = molecular target: T1, Human EpCAM-Fc-his tagged; test: BLI (ForteBio Octet), repeat analysis, antibody on Protein A tips, recombinant polyhistidine-tagged EpCAM-Fc in solution, 1:1 model
Description: as §1
Table A-3 describes a repeat analysis for Ab#5, Ab#7, and Ab#13. For the repeat experiment, Kd and kdiss values for Ab#5, Ab#7, and Ab#13 are substantially equivalent to those determined for Ab#5, Ab#7, and Ab#13 in the initial experiment.

cMet-his [4] = molecular target: T2, cMet-his; test: BLI (ForteBio Octet), antibody loaded on Protein A tips, his tagged cMET in solution, 1:1 model
Description: Protocol: All reagents are equilibrated and samples are brought to room temperature. Protein A sensor tips (Fortebio, #18-5010) are hydrated for 10 min in 1×PBS. Kinetic assays are run using the Octet software and procedure per manufacturer's instruction. Assay steps typically include: 1-2 min of equilibration in 1×PBS, 4 min of antibody loading (conc: 50 μg/mL in 1×PBS), 1-2 min of baseline stabilization, 4 min of antibody:antigen association, and 4 min of antibody:antigen dissociation. 1×PBS is used as the matrix throughout. Data are analyzed with Octet Data Analysis software, processed, and fit to the curve using 1:1 binding model to determine kinetic parameters (Kₐ, Kₒₙ and Koff)

T1 sequence (chain, as listed by the source): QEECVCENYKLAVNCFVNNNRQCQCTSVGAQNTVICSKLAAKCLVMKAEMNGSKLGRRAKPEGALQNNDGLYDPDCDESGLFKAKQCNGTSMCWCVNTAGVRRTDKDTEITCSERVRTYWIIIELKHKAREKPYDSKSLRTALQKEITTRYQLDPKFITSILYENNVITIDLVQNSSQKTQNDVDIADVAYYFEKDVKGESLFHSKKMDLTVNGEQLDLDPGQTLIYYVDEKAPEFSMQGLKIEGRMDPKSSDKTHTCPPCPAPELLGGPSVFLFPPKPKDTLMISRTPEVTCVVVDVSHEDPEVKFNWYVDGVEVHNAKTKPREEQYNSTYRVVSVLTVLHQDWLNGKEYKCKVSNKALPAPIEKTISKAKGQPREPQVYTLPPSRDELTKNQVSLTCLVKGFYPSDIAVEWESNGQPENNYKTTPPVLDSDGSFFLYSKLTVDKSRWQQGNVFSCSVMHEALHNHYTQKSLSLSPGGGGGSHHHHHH

Binder	Kd [1] [nM]	koff [1] [s⁻¹]	Kd (cMet-his [2]) [nM]	koff (cMet-his [2]) [s⁻¹]	Kd [3] [nM]	koff [3] [s⁻¹]	Kd (cMet-his [4]) [nM]
Ab#5 (bispecific antibody, human IgG1, kappa, Anti-c-Met Fab / tandem Fc / anti-EpCAM scFv TFcBA; also called Antibody #5) heavy: QLQLQESGPGLVKPSETLSLTCTVSGGSISSSVYYWSWIRQPPGKGLEWIGVIYPSGNTYYSPSLKSRVTISVDTSKNQFSLKLSSVTAADTAVYYCARTIYDLFDIWGQGTMVTVSSASTKGPSVFPLAPSSKSTSGGTAALGCLVKDYFPEPVTVSWNSGALTSGVHTFPAVLQSSGLYSLSSVVTVPSSSLGTQTYICNVNHKPSNTKVDKKVEPKSCDKTHTCPSCPAPEFLGGPSVFLFPPKPKDTLMISRTPEVTCVVVDVSQEDPEVQFNWYVDGVEVHNAKTKPREEQFNSKYRVVSVLTVLHQDWLNGKEYKCKVSNKGLPSSIEKTISKAKGQPREPQVYTLPPSREEMTKNQVSLSCAVKGFYPSDIAVEWESNGQPENNYKTTPPVLDSDGSFFLVSKLTVDKSRWQQGNVFSCSVMHEALHNHYTQKSLSLSKSCDKTGGGGSGGGGSGGGGSGGGGSGGGGSGGGGSGGGGSGGGGSCPSCPAPEFLGGPSVFLFPPKPKDTLMISRTPEVTCVVVDVSQEDPEVQFNWYVDGVEVHNAKTKPREEQFNSDYRVVSVLTVLHQDWLNGKEYKCKVSNKGLPSSIEKTISKAKGQPREPQVYTLPPSREEMTKNQVSLWCLVKGFYPSDIAVEWESNGQPENNYKTTPPVLDSDGSFFLYSKLTVDKSRWQQGNVFSCSVMHEALHNHYTQKSLSLSGECGGGGSGGGGSDIVMTQSPLSLPVTPGEPASISCRSTKSLLHSNGITYLYWYLQKPGQSPQLLIYQMSNLASGVPDRFSSSGSGTDFTLKISRVEAEDEGVYYCAQNLEIPRTFGGGTKLEIKRTGGGGSGGGGSGGGGSGGGGSQVQLVQSGAEVKKPGESVKISCKASGYTFTNYGMNWVRQAPGQGLKWMGWINTYTGESTYADDFKGRFAFSLDTSASTAYLQLSSLRSEDTAVYFCARFAIKGDYWGQGTLVTVSS light: DIQMTQSPSSVSASVGDRVTITCRASQGISSWLAWYQQKPGKAPKLLIYAASSLQSGVPSRFSGSGSGTDFTLTISSLQPEDFATYYCLQANSFPPTFGGGTKVEIKRTVAAPSVFIFPPSDEQLKSGTASVVCLLNNFYPREAKVQWKVDNALQSGNSQESVTEQDSKDSTYSLSSTLTLSKADYEKHKVYACEVTHQGLSSPVTKSFNRGEC	3.57	0.000346	3.4	0.000588	2.67	0.000194	–
Ab#7 (bispecific antibody, human IgG1, kappa, Anti-c-Met Fab / tandem Fc / anti-EpCAM scFv TFcBA; also called Antibody #7) heavy: QLQLQESGPGLVKPSETLSLTCTVSGGSISSSVYYWSWIRQPPGKGLEWIGVIYPSGNTYYSPSLKSRVTISVDTSKNQFSLKLSSVTAADTAVYYCARTIYDLFDIWGQGTMVTVSSASTKGPSVFPLAPSSKSTSGGTAALGCLVKDYFPEPVTVSWNSGALTSGVHTFPAVLQSSGLYSLSSVVTVPSSSLGTQTYICNVNHKPSNTKVDKKVEPKSCDKTHTCPSCPAPEFLGGPSVFLFPPKPKDTLMISRTPEVTCVVVDVSQEDPEVQFNWYVDGVEVHNAKTKPREEQFNSKYRVVSVLTVLHQDWLNGKEYKCKVSNKGLPSSIEKTISKAKGQPREPQVYTLPPSREEMTKNQVSLSCAVKGFYPSDIAVEWESNGQPENNYKTTPPVLDSDGSFFLVSKLTVDKSRWQQGNVFSCSVMHEALHNHYTQKSLSLSKSCDKTGGGGSGGGGSGGGGSGGGGSGGGGSGGGGSGGGGSGGGGSCPSCPAPEFLGGPSVFLFPPKPKDTLMISRTPEVTCVVVDVSQEDPEVQFNWYVDGVEVHNAKTKPREEQFNSDYRVVSVLTVLHQDWLNGKEYKCKVSNKGLPSSIEKTISKAKGQPREPQVYTLPPSREEMTKNQVSLWCLVKGFYPSDIAVEWESNGQPENNYKTTPPVLDSDGSFFLYSKLTVDKSRWQQGNVFSCSVMHEALHNHYTQKSLSLSGECGGGGSGGGGSDIVMTQSPLSLPVTPGEPASISCRSTKSLLHSDGITYLYWYLQKPGQSPQLLIYQLSNLASGVPDRFSSSGSGTDFTLKISRVEAEDEGVYYCAQNLEIPRTFGCGTKLEIKRTGGGGSGGGGSGGGGSGGGGSQVQLVQSGAEVKKPGESVKISCKASGYTFTNYGMNWVRQAPGQCLKWMGWINTYTGESTYADDFKGRFAFSLDTSASTAYLQLSSLRSEDTAVYFCARFAIKGDYWGQGTLVTVSS light: DIQMTQSPSSVSASVGDRVTITCRASQGISSWLAWYQQKPGKAPKLLIYAASSLQSGVPSRFSGSGSGTDFTLTISSLQPEDFATYYCLQANSFPPTFGGGTKVEIKRTVAAPSVFIFPPSDEQLKSGTASVVCLLNNFYPREAKVQWKVDNALQSGNSQESVTEQDSKDSTYSLSSTLTLSKADYEKHKVYACEVTHQGLSSPVTKSFNRGEC	25.9	0.00132	2.81	0.000554	15.4	0.00137	–
Onartuzumab-39EGY4-panitumumab (bispecific antibody, Anti-c-Met Fab / TFc 39E glycoform 4 / anti-EGFR panitumumab scFv) heavy: EVQLVESGGGLVQPGGSLRLSCAASGYTFTSYWLHWVRQAPGKGLEWVGMIDPSNSDTRFNPNFKDRFTISADTSKNTAYLQMNSLRAEDTAVYYCATYRSYVTPLDYWGQGTLVTVSSASTKGPSVFPLAPSSKSTSGGTAALGCLVKDYFPEPVTVSWNSGALTSGVHTFPAVLQSSGLYSLSSVVTVPSSSLGTQTYICNVNHKPSNTKVDKKVEPKSCDKTHTCPSCPAPEFLGGPSVFLFPPKPKDTLMISRTPEVTCVVVDVSQEDPEVQFNWYVDGVEVHNAKTKPREEQFNSKYRVVSVLTVLHQDWLNGKEYKCKVSNKGLPSSIEKTISKAKGQPREPQVYTLPPSREEMTKNQVSLSCAVKGFYPSDIAVEWESNGQPENNYKTTPPVLDSDGSFFLVSKLTVDKSRWQQGNVFSCSVMHEALHNHYTQKSLSLSKSCDKTGGGGSGGGGSGGGGSGGGGSGGGGSGGGGSGGGGSGGGGSCPSCPAPEFLGGPSVFLFPPKPKDTLMISRTPEVTCVVVDVSQEDPEVQFNWYVDGVEVHNAKTKPREEQFNSDYRVVSVLTVLHQDWLNGKEYKCKVSNKGLPSSIEKTISKAKGQPREPQVYTLPPSREEMTKNQVSLWCLVKGFYPSDIAVEWESNGQPENNYKTTPPVLDSDGSFFLYSKLTVDKSRWQQGNVFSCSVMHEALHNHYTQKSLSLSGECGGGGSGGGGSQVQLQESGPGLVKPSETLSLTCTVSGGSVSSGDYYWTWIRQSPGKGLEWIGHIYYSGNTNYNPSLKSRLTISIDTSKTQFSLKLSSVTAADTAIYYCVRDRVTGAFDIWGQGTMVTSSASTGGGGSGGGGSGGGGSGGGGSDIQMTQSPSSLSASVGDRVTITCQASQDISNYLNWYQQKPGKAPKLLIYDASNLETGVPSRFSGSGSGTDFTFTISSLQPEDEATYFCQHFDHLPLAFGGGTKVEIKRT light: DIQMTQSPSSLSASVGDRVTITCKSSQSLLYTSSQKNYLAWYQQKPGKAPKLLIYWASTRESGVPSRFSGSGSGTDFTLTISSLQPEDFATYYCQQYYAYPWTFGQGTKVEIKRTVAAPSVFIFPPSDEQLKSGTASVVCLLNNFYPREAKVQWKVDNALQSGNSQESVTEQDSKDSTYSLSSTLTLSKADYEKHKVYACEVTHQGLSSPVTKSFNRGEC	–	–	–	–	–	–	1.6

Other lines, results leading:

Kd [1] [nM]	koff [1] [s⁻¹]	Kd (cMet-his [2]) [nM]	koff (cMet-his [2]) [s⁻¹]	Kd [3] [nM]	koff [3] [s⁻¹]	Kd (cMet-his [4]) [nM]	Binder
4.98	0.00036	–	–	4.69	0.000323	–	Ab#13 (bispecific antibody, Anti-c-Met Fab / tandem Fc / anti-EpCAM scFv TFcBA; also called Antibody #13) heavy: QLQLQESGPGLVKPSETLSLTCTVSGGSISSSVYYWSWIRQPPGKGLEWIGVIYPSGNTYYSPSLKSRVTISVDTSKNQFSLKLSSVTAADTAVYYCARTIYDLFDIWGQGTMVTVSSASTKGPSVFPLAPSSKSTSGGTAALGCLVKDYFPEPVTVSWNSGALTSGVHTFPAVLQSSGLYSLSSVVTVPSSSLGTQTYICNVNHKPSNTKVDKKVEPKSCDKTHTCPSCPAPEFLGGPSVFLFPPKPKDTLMISRTPEVTCVVVDVSQEDPEVQFNWYVDGVEVHNAKTKPREEQFNSKYRVVSVLTVLHQDWLNGKEYKCKVSNKGLPSSIEKTISKAKGQPREPQVYTLPPSREEMTKNQVSLSCAVKGFYPSDIAVEWESNGQPENNYKTTPPVLDSDGSFFLVSKLTVDKSRWQQGNVFSCSVMHEALHNHYTQKSLSLSKSCDKTGGGGSGGGGSGGGGSGGGGSGGGGSGGGGSGGGGSGGGGSCPSCPAPEFLGGPSVFLFPPKPKDTLMISRTPEVTCVVVDVSQEDPEVQFNWYVDGVEVHNAKTKPREEQFNSDYRVVSVLTVLHQDWLNGKEYKCKVSNKGLPSSIEKTISKAKGQPREPQVYTLPPSREEMTKNQVSLWCLVKGFYPSDIAVEWESNGQPENNYKTTPPVLDSDGSFFLYSKLTVDKSRWQQGNVFSCSVMHEALHNHYTQKSLSLSGECGGGGSGGGGSDIVMTQSPSSLSASVGDKATITCRSTKSLLHSNGITYLYWYLQKPGKAPKLLIYQMSNLASGVPDRFSSSGSGTEFTLTISSVQPEDEGTYYCAQNLEIPRTFGQGTKLEIKRTPSHNSHQVPSAGGPTANSGTSGSQVQLQQSGGGLVKPGESVKISCAASGYTFTNYGMNWVKQAPGKGLKWMGWINTYTGESTYADDFKGRFTFSLETSASAAYLQINSLRPEDTAVYFCARFAIKGDYWGQGTTVTVSS light: DIQMTQSPSSVSASVGDRVTITCRASQGISSWLAWYQQKPGKAPKLLIYAASSLQSGVPSRFSGSGSGTDFTLTISSLQPEDFATYYCLQANSFPPTFGGGTKVEIKRTVAAPSVFIFPPSDEQLKSGTASVVCLLNNFYPREAKVQWKVDNALQSGNSQESVTEQDSKDSTYSLSSTLTLSKADYEKHKVYACEVTHQGLSSPVTKSFNRGEC
–	–	–	–	–	–	1.2	Onartuzumab (antibody) chain 1: not shown chain 2: DIQMTQSPSSLSASVGDRVTITCKSSQSLLYTSSQKNYLAWYQQKPGKAPKLLIYWASTRESGVPSRFSGSGSGTDFTLTISSLQPEDFATYYCQQYYAYPWTFGQGTKVEIKRTVAAPSVFIFPPSDEQLKSGTASVVCLLNNFYPREAKVQWKVDNALQSGNSQESVTEQDSKDSTYSLSSTLTLSKADYEKHKVYACEVTHQGLSSPVTKSFNRGEC chain 3: not shown
